B2: Fbxw5/Skp1 sub-complex (complex, human)
chain 1: MDEGGTPLLPDSLVYQIFLSLGPADVLAAGLVCRQWQAVSRDEFLWREQFYRYYQVARDVPRHPAAMSWYEEFQRLYDTVPCVEVQTLREHTDQVLHLSFSHSGYQFASCSKDCTVKIWSNDLTISLLHSADMRPYNWSYTQFSQFNKDDSLLLASGVFLGPHNSSSGEIAVISLDSFALLSRVRNKPYDVFGCWLTETSLISGNLHRIGDITSCSVLWLNNAFQDVESENVNVVKRLFKIQNLNASTVRTVMVADCSRFDSPDLLLEAGDPATSPCRIFDLGSDNEEVVAGPAPAHAKEGLRHFLDRVLEGRAQPQLSERMLETKVAELLAQGHTKPPERSATGAKSKYLIFTTGCLTYSPHQIGIKQILPHQMTTAGPVLGEGRGSDAFFDALDHVIDIHGHIIGMGLSPDNRYLYVNSRAWPNGAVVADPMQPPPIAEEIDLLVFDLKTMREVRRALRAHRAYTPNDECFFIFLDVSRDFVASGAEDRHGYIWDRHYNICLARLRHEDVVNSVVFSPQEQELLLTASDDATIKAWRSPRTMRVLQAPRPRPRTFFSWLASQRR
chain 2: MPSIKLQSSDGEIFEVDVEIAKQSVTIKTMLEDLGMDPVPLPNVNAAILKKVIQWCTHHKDDPPDDIPVWDQEFLKVDQGTLFELILAANYLDIKGLLDVTCKTVANMIKGKTPEEIRKTFNIKNDFTEEEEAQVRKENQWCEEK
notes: Fbxw5, human; Skp1, human, with deletion of two loops (aa 38-43 and 71-82), plasmid pFastBac1-Skp1ΔΔ; pFastBac1-Skp1ΔΔ is the Skp1 baculovirus plasmid that the methods describe; source: Sf21, co-infected with both baculoviruses, purified (Ni-NTA, Superdex 200); not shown: His tag (from the Ni-NTA purification and precipitation)

The target of assay [1] is B2. Nature of the assay: pull-down; purified proteins from Sf21 cells, 5-fold molar excess of prey over Fbxw5/Skp1 bait, mixed with competing E. coli lysate in PD buffer (20 mM HEPES pH 7.3, 110 mM K-acetate, 300 mM NaCl, 20 mM imidazole, 0.1% NP-40), precipitated via Ni-NTA agarose, SDS-PAGE. The conditions noted are these: both partners purified.
The target in assay [2] is T1, MCAK (purified from Sf21 cells) (human, UniProt Q99661 1-725).
T1 construct: Kif2c/MCAK, human; also called Kif2c; source: Sf21, purified (Ni-NTA, TEV cleavage, Superdex 200)
T1 sequence (looked up): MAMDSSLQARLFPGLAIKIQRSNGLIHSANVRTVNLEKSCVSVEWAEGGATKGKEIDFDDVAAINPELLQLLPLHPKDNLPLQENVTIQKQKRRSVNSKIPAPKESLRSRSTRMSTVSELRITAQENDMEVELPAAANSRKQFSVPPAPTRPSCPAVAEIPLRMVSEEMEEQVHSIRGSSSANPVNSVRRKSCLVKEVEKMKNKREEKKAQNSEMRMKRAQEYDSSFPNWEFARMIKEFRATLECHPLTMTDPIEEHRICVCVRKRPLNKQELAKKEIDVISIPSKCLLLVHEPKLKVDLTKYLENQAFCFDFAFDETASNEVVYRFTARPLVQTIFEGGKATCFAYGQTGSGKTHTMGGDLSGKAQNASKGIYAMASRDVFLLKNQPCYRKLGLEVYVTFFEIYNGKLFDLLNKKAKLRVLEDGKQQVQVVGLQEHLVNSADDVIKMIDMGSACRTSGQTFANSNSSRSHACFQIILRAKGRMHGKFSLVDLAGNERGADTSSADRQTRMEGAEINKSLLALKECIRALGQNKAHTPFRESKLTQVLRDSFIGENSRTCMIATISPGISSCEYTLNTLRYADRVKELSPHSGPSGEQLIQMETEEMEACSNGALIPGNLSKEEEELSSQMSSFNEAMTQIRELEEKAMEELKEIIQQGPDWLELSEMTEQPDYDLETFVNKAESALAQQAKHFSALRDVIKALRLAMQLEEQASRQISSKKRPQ
The description is as above. The conditions noted are these: both partners purified.

B1: Kif2a (purified from Sf21 cells) (natural protein, human, UniProt O00139-1 1-679, looked up)
chain: MVTSLNEDNESVTVEWIENGDTKGKEIDLESIFSLNPDLVPDEEIEPSPETPPPPASSAKVNKIVKNRRTVASIKNDPPSRDNRVVGSARARPSQFPEQSSSAQQNGSVSDISPVQAAKKEFGPPSRRKSNCVKEVEKLQEKREKRRLQQQELREKRAQDVDATNPNYEIMCMIRDFRGSLDYRPLTTADPIDEHRICVCVRKRPLNKKETQMKDLDVITIPSKDVVMVHEPKQKVDLTRYLENQTFRFDYAFDDSAPNEMVYRFTARPLVETIFERGMATCFAYGQTGSGKTHTMGGDFSGKNQDCSKGIYALAARDVFLMLKKPNYKKLELQVYATFFEIYSGKVFDLLNRKTKLRVLEDGKQQVQVVGLQEREVKCVEDVLKLIDIGNSCRTSGQTSANAHSSRSHAVFQIILRRKGKLHGKFSLIDLAGNERGADTSSADRQTRLEGAEINKSLLALKECIRALGRNKPHTPFRASKLTQVLRDSFIGENSRTCMIATISPGMASCENTLNTLRYANRVKELTVDPTAAGDVRPIMHHPPNQIDDLETQWGVGSSPQRDDLKLLCEQNEEEVSPQLFTFHEAVSQMVEMEEQVVEDHRAVFQESIRWLEDEKALLEMTEEVDYDVDSYATQLEAILEQKIDILTELRDKVKSFRAALQEEEQASKQINPKRPRAL
notes: source: Sf21, purified (Ni-NTA, TEV cleavage, Superdex 200)
For B1, the binding result in assay [1] was “binds”.

Consider B2, for which the binding result in assay [2] is recorded as “binds”.

These data come from publication PMC8441365, “SCF^Fbxw5 targets kinesin‐13 proteins to facilitate ciliogenesis” (The EMBO Journal, 2021).
